The values below are quoted from earlier work in publication PMC4986992.

pKd: −log10 of the molar value.

The series addresses Glycophorin A (GpATM) TM (Homo sapiens) (UniProt P02724).

In the case of “Glycophorin A (GpATM) TM (from UniProt P02724)”, the pKd was 11.92.

Usually pKd stands for the negative decadic logarithm of the Kd, by convention in mol/L.
